We go through one substance from patent publication US20250195573A1.

This test deals with MART-1(27-35) presented by HLA-A2 on A375 melanoma cells (human) (UniProt Q16655). Description: cell-based or functional assay.

“DMF5 β:CD3z:MyD88 (from UniProt P20963 52-164; Q99836 1-155) (TCR)” yielded a TNFa, IFNg, or IL-2 in supernatant by ELISA, T cells with peptide-pulsed A375 cells (× less antigen) of 10.
